The target of the data set is T1, PHF14 ePHD domain WT (Homo sapiens, UniProt O94880 382-499).
T1 sequence: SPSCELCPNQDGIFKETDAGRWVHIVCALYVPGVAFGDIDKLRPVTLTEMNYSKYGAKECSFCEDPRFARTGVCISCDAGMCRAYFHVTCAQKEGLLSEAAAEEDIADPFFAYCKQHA
Description: SPR; protein immobilized on CM5; SPR: HBS-P (10 mM HEPES pH 7.4, 150 mM NaCl, 0.05% P20), 25 °C, 1:1 Langmuir fit; EMSA: LightShift kit protocol, 0.5x TBE native PAGE, buffer not stated. Conditions: protein: recombinant; tags: His (EMSA, purification method); FLAG (SPR); label: biotin (EMSA); blunt. A general note: Surface plasmon resonance follows binding to a sensor surface in real time, without labels.

B1: AT-rich probe (dsDNA)
DNA 1: CATTAGATGATAGCATTAGATGATAG
DNA 2: CTATCATCTAATGCTATCATCTAATG
The term Kd denotes the free concentration of one partner at which half of the binding sites on the other are occupied at equilibrium, for simple one-to-one binding. As for B1, the Kd was found to be 230 nM.

B2: CG-rich probe, unmethylated (dsDNA)
DNA 1: ACGGCTCGTCGCTACGGCTCGTCGCT
DNA 2: AGCGACGAGCCGTAGCGACGAGCCGT
Take B2: the Kd is 36 nM.

The record behind these values is article PMC10113255, “PHF14 enhances DNA methylation of SMAD7 gene to promote TGF-β-driven lung adenocarcinoma metastasis”.
